Experimental data as given in US20060257938A1, “Method of screening for drugs that block ligand binding to a lipid binding protein” (priority 2005, published 2006).
Substitutions are numbered along the chain they refer to.

B1: 51A1, 72A (protein, listed as Rattus norvegicus)
chain: AFDGTWKVDRNENYEKFMEKMGINVVKRKLGAHDNLKLTITQEGNKFTVKASSNFRNIDVVFELGVDFAYSAADGTELTGTWTMEGNKLVGKFKRVDNGKELIAVREISGNELIQTYTYEGVEAKRIFKKE
modifications: PEPTIDE (1)...(131) wild-type rat intestinal fatty acid binding protein
B2: 51W2, 72A (protein, listed as Rattus norvegicus)
chain: B1 chain with A51W
modifications: PEPTIDE (1)...(131) wild-type rat intestinal fatty acid binding protein
B3: 51N1, 72A (protein, listed as Rattus norvegicus)
chain: B1 chain with A51N
modifications: PEPTIDE (1)...(131) wild-type rat intestinal fatty acid binding protein
B4: 55A1, 72A (protein, listed as Rattus norvegicus)
chain: B1 chain with A51E, F55A
modifications: PEPTIDE (1)...(131) wild-type rat intestinal fatty acid binding protein
B5: 51C3, 72A (protein, listed as Rattus norvegicus)
chain: B1 chain with A51C
modifications: PEPTIDE (1)...(131) wild-type rat intestinal fatty acid binding protein
B6: 55D1, 72A (protein, listed as Rattus norvegicus)
chain: B1 chain with A51E, F55D
modifications: PEPTIDE (1)...(131) wild-type rat intestinal fatty acid binding protein
B7: 51H1, 72A (protein, listed as Rattus norvegicus)
chain: B1 chain with A51H
modifications: PEPTIDE (1)...(131) wild-type rat intestinal fatty acid binding protein
B8: 51G1, 72A (protein, listed as Rattus norvegicus)
chain: B1 chain with A51G
modifications: PEPTIDE (1)...(131) wild-type rat intestinal fatty acid binding protein
B9: 51S1, 72A (protein, listed as Rattus norvegicus)
chain: B1 chain with A51S
modifications: PEPTIDE (1)...(131) wild-type rat intestinal fatty acid binding protein
B10: 51K1, 72A (protein, listed as Rattus norvegicus)
chain: B1 chain with A51K
modifications: PEPTIDE (1)...(131) wild-type rat intestinal fatty acid binding protein
B11: 51R1, 72A (protein, listed as Rattus norvegicus)
chain: B1 chain with A51R
modifications: PEPTIDE (1)...(131) wild-type rat intestinal fatty acid binding protein
B12: 51F1, 72A (protein, listed as Rattus norvegicus)
chain: B1 chain with A51F
modifications: PEPTIDE (1)...(131) wild-type rat intestinal fatty acid binding protein
B13: 55G1, 72A (protein, listed as Rattus norvegicus)
chain: B1 chain with A51E, F55G
modifications: PEPTIDE (1)...(131) wild-type rat intestinal fatty acid binding protein
B14: 51Q1, 72A (protein, listed as Rattus norvegicus)
chain: B1 chain with A51Q
modifications: PEPTIDE (1)...(131) wild-type rat intestinal fatty acid binding protein
B15: 51I1, 72A (protein, listed as Rattus norvegicus)
chain: B1 chain with A51I
modifications: PEPTIDE (1)...(131) wild-type rat intestinal fatty acid binding protein
B16: 51D1, 72A (protein, listed as Rattus norvegicus)
chain: B1 chain with A51D
modifications: PEPTIDE (1)...(131) wild-type rat intestinal fatty acid binding protein
B17: 51L3, 72A (protein, listed as Rattus norvegicus)
chain: B1 chain with A51L
modifications: PEPTIDE (1)...(131) wild-type rat intestinal fatty acid binding protein
B18: 55H2, 72A (protein, listed as Rattus norvegicus)
chain: B1 chain with A51E, F55H
modifications: PEPTIDE (1)...(131) wild-type rat intestinal fatty acid binding protein
B19: 51Y1, 72A (protein, listed as Rattus norvegicus)
chain: B1 chain with A51Y
modifications: PEPTIDE (1)...(131) wild-type rat intestinal fatty acid binding protein
B20: 55I1, 72A (protein, listed as Rattus norvegicus)
chain: B1 chain with A51E, F55I
modifications: PEPTIDE (1)...(131) wild-type rat intestinal fatty acid binding protein
B21: 51P3, 72A (protein, listed as Rattus norvegicus)
chain: B1 chain with A51P
modifications: PEPTIDE (1)...(131) wild-type rat intestinal fatty acid binding protein
B22: 55E, 72A (protein, listed as Rattus norvegicus)
chain: B1 chain with A51E, F55E
modifications: PEPTIDE (1)...(131) wild-type rat intestinal fatty acid binding protein
B23: 51V3, 72A (protein, listed as Rattus norvegicus)
chain: B1 chain with A51V
modifications: PEPTIDE (1)...(131) wild-type rat intestinal fatty acid binding protein
B24: 51T3, 72A (protein, listed as Rattus norvegicus)
chain: B1 chain with A51T
modifications: PEPTIDE (1)...(131) wild-type rat intestinal fatty acid binding protein

Assay: Probe fluorescence ratio response to palmitic acid relative to ADIFAB2
Format: binding
Details: response relative to ADIFAB2
Procedure, shortened: (§1)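 Each fatty acid's response was expressed relative to ADIFAB2, the rI-FABP-L72A probe, as ΔR/ΔRreference. ΔR is the change in the background-corrected two-wavelength intensity ratio R=Fλ1/Fλ2 from its analyte-free baseline R0. Emission was read near about 420-480 nm for unbound and about 495-580 nm for FFA-bound probe.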

Molecule | DR/DR PA
B1 | 0.70
B2 | 0.80
B3 | 0.73
B4 | 0.28
B5 | 0.69
B6 | 0.10
B7 | 0.81
B8 | 0.78
B9 | 0.80
B10 | 0.56
B11 | 0.73
B12 | 0.76
B13 | 0.18
B14 | 0.73
B15 | 0.72
B16 | 0.68
B17 | 0.76
B18 | 0.26
B19 | 0.72
B20 | 0.77
B21 | 0.72
B22 | 0.17
B23 | 0.73
B24 | 0.71

Assay: Probe fluorescence ratio response to linolenic acid relative to ADIFAB2
Format: binding
Details: response relative to ADIFAB2
Procedure, shortened: as §1

Molecule | DR/DR LNA
B1 | 1.49
B2 | 1.70
B3 | 1.39
B4 | 0.36
B5 | 1.47
B6 | 0.12
B7 | 1.58
B8 | 1.76
B9 | 1.66
B10 | 1.02
B11 | 1.56
B12 | 1.60
B13 | 0.23
B14 | 1.65
B15 | 1.62
B16 | 1.39
B17 | 1.66
B18 | 0.32
B19 | 1.44
B20 | 0.89
B21 | 1.48
B22 | 0.21
B23 | 1.53
B24 | 1.60

Assay: Probe fluorescence ratio response to linoleic acid relative to ADIFAB2
Format: binding
Details: response relative to ADIFAB2
Procedure, shortened: as §1

Molecule | DR/DR LA
B1 | 1.48
B2 | 1.77
B3 | 1.46
B4 | 0.34
B5 | 1.55
B6 | 0.12
B7 | 1.64
B8 | 1.71
B9 | 1.78
B10 | −0.01
B11 | 1.56
B12 | 1.70
B13 | 0.22
B14 | 1.63
B15 | 1.55
B16 | 1.38
B17 | 1.65
B18 | 0.38
B19 | 1.50
B20 | 0.83
B21 | 1.42
B22 | 0.21
B23 | 1.64
B24 | 1.65

Assay: Probe fluorescence ratio response to oleic acid relative to ADIFAB2
Format: binding
Details: response relative to ADIFAB2
Procedure, shortened: as §1

Molecule | DR/DR OA
B1 | 1.28
B2 | 1.55
B3 | 1.26
B4 | 0.30
B5 | 1.35
B6 | 0.10
B7 | 0.58
B8 | 1.57
B9 | 1.61
B10 | 1.01
B11 | 1.35
B12 | 1.47
B13 | 0.19
B14 | 1.43
B15 | 1.41
B16 | 1.28
B17 | 1.45
B18 | 0.27
B19 | 1.38
B20 | 0.90
B21 | 1.21
B22 | 0.21
B23 | 1.43
B24 | 1.44

Assay: Probe fluorescence ratio response to arachidonic acid relative to ADIFAB2
Format: binding
Details: Arachidonic acid; response relative to ADIFAB2
Procedure, shortened: as §1

Molecule | DR/DR AA
B1 | 1.38
B2 | 1.69
B3 | 1.38
B4 | 0.33
B5 | 1.44
B6 | 0.11
B7 | 1.52
B8 | 1.64
B9 | 1.64
B10 | 1.00
B11 | 1.50
B12 | 1.64
B13 | 0.19
B14 | 1.56
B15 | 1.50
B16 | 1.34
B17 | 1.64
B18 | 0.36
B19 | 1.38
B20 | 1.08
B21 | 1.42
B22 | 0.21
B23 | 1.52
B24 | 1.60
